This is an account of results in patent publication US20070065430A1 (GlaxoSmithKline, published 2007).

For assay [1], the target named is T1, recombinantly expressed human NOGO-A (hNOGO) (human, UniProt Q9NQC3 586-785, limits assumed).
T1 sequence (looked up): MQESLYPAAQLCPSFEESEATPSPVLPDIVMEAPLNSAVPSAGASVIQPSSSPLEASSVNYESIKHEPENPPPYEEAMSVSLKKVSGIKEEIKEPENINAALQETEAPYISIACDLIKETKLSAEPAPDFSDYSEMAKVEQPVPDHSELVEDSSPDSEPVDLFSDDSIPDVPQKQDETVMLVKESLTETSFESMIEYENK
The experiment in a line: SPR, Biacore3000; hNOGO amine-coupled to CM5 chip, antibody in solution. The procedure: The binding kinetics of the anti-NOGO monoclonal antibody (mAb) to recombinantly expressed human NOGO-A (hNOGO) was analysed using the Biacore3000 biosensor. The methodology was as followed:
hNOGO was immobilised to a CM5 chip by primary amine coupling using the Biacore Wizard program designed for targeted immobilisation levels. The CM5 sensor surface was activated by passing a solution of 50 mM N-hydroxy-succinimide (NHS) and 200 mM N-ethyl-N′-dimethylaminopropyl carbonide (EDC). Then using a 300 nM solution of hNOGO in 5 mM sodium acetate, pH5.0, a range of concentrations between 50-200 resonance units of hNOGO were immobilised. After immobilisation was complete any still activated esters were blocked by an injection of 1 M ethanolamine hydrochloride, pH8.5.
The H1L11 mAb (see example 8) was diluted down in HBS-EP (10 mM HEPES, pH 7.4, 150 mM NaCl, 3 mM EDTA, and 0.005% P-20 surfactant) and binding studies were carried out at concentrations ranging between 0.1-100 nM. For kinetic analysis a flowrate of 60 μl/minute was used, with no mass transfer effects seen. All concentrations were performed in duplicate, in a random order with buffer blanks included. Regeneration was achieved either by the single injection of a 15 μl pulse of 50 mM sodium hydroxide alone or the injection of 15 μl of 100 mM H₃PO₄, followed by a subsequent injection of 15 μl of 50 mM sodium hydroxide. […] All runs were referenced against a blanked sensor surface (one that had been activated and blocked as described earlier but had no addition of ligand). Analysis of binding was carried out using the BIAevaluation kinetic analysis software version 4.1. Biacore analysis of other antibodies of the invention essentially followed the same protocol as described herein.
For orientation: SPR reads the build-up and loss of mass on a sensor chip optically.

For assay [2], the target named is T2, GST-human NOGO-A56 fusion protein (amino acids 586-785 of human NOGO-A) (human, UniProt Q9NQC3 586-786).
T2 construct: Expressed in E. coli BL21 and purified on glutathione-sepharose; Coated on plates for the ELISAs and dried onto wells for the neurite outgrowth assay; also called GST-NOGO-A56; GST-Nogo5&6
T2 sequence: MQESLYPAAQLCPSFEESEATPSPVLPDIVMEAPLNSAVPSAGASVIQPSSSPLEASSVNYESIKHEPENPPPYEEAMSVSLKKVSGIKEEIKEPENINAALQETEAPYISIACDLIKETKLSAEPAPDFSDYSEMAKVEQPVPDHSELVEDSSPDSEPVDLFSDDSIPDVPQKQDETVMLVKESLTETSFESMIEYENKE
The experiment in a line: ELISA; GST-human NOGO-A56 coated at 1 µg/ml, anti-human kappa peroxidase detection. The procedure:
GST-human NOGO-A56 at 1 μg/ml in 50 mM Tris pH9.5 was coated onto Nunc Immunosorp plates (100 μl per well) at 4° C. overnight. Wells were rinsed once with TBS+0.05% tween then incubated with 2% BSA in TBS+0.05% tween to block non-specific binding sites at room temperature for Ihour. Antibodies were diluted in TBS+0.05% tween+2% BSA to 10 μg/ml and ½ dilutions made from this. Antibodies were added to wells in duplicate and incubated at room temperature for 1 hour. Wells were washed three times with TBS+0.05% tween then incubated with anti-human kappa peroxidase conjugate (1:2000) for 1 hour. Washed three times with TBS+0.05% tween and then incubated with 100 μl OPD peroxidase substrate (Sigma) per well for 10 minutes. The colour reaction was stopped by the addition of 25 μl concentrated H₂SO₄. Optical density at 490 nm was measured using a plate reader. Background values read from wells with no antibody were subtracted.
FIGS. 35A to C illustrates the dose-dependent binding of humanised antibody H1L11 in comparison with the chimera (HcLc) to human NOGO-A56 in an ELISA assay.
For orientation: In an ELISA, binding on a coated surface is turned into a signal by an enzyme label.

For another assay, the target named is T3, rat NOGO-A (rat, UniProt Q9JK11 173-975, limits assumed).
T3 construct: Used in 'a similar analysis' by Biacore
T3 sequence (looked up): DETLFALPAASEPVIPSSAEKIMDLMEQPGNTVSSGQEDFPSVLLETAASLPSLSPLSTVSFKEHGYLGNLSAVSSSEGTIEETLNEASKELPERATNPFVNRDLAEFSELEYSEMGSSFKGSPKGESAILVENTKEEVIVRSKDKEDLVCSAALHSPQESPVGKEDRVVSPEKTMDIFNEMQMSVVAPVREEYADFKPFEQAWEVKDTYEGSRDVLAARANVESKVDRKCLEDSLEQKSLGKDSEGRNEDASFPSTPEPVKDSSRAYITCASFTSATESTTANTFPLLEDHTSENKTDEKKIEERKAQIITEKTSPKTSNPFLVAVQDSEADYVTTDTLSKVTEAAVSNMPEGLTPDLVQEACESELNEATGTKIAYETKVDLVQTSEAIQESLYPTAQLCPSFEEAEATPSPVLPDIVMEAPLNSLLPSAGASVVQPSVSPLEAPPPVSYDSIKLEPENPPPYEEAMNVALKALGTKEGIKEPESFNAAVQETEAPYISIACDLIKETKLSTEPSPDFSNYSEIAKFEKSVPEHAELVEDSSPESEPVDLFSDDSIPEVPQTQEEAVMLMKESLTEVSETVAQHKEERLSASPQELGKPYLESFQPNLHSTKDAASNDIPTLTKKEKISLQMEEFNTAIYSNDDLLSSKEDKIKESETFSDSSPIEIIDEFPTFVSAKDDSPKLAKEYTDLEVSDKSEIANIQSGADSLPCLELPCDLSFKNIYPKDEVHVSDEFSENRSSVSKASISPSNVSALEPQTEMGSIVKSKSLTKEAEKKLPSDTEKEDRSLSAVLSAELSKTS
The experiment in a line: SPR, Biacore; similar analysis using rat NOGO-A.

Positions count from the first letter of the chain named.

B1: Chimeric 2A10 (HcLc) (antibody, human IgG1, kappa, V domains shown)
VH: QVQLQQPGTELVKPGASVKLSCKASGYTFTSYWMHWVKQRPGQGLEWIGNINPSNGGTNYNEKFKSKATLTVDKSSSTAYMQLSSLTSEDSAVYYCELGQGYWGQGTLVTVSS
VL: DIVITQDELSNPVTSGESVSISCRSSKSLLYKDGKTYLNWFLQRPGQSPQLLIYLMSTRASGVSDRFSGSGSGTDFTLEISRVKAEDVGVYYCQQLVEYPLTFGAGTKLELKR
notes: Murine 2A10 V regions on human IgG1/k wild type C regions; also called chimaera of 2A10; the chimera
By Kd is commonly meant a measure of binding affinity in units of concentration. By koff is commonly meant the rate constant with which the complex falls apart. What is called kon is the second-order rate constant of association. For orientation: EC50 means the concentration that produces a half-maximal response. B1: in assay [1], the dissociation constant Kd was 1.26 nM, the koff came out at 0.00249 s⁻¹ and the on-rate constant (kon) worked out at 2.23e+06 M⁻¹ s⁻¹. In assay [2], this molecule came in with an EC50 of 0.022 µg/mL.

B2: Anti-NOGO antibody 2A10/3 (mouse monoclonal) (antibody, V domains shown)
VH: B1 VH with L108T, V109L
VL: DIVITQDELSNPVTSGESVSISCRSSKSLLYKDGKTYLNWFLQRPGQSPQLLIYLMSTRASGVSDRFSGSGSGTDFTLEISRVKAEDVGVYYCQQLVEYPLTFGAGTKLELK
notes: Mouse hybridoma antibody; also called Mouse 2A10; 2A10-BR
With B2, in assay [1], the equilibrium dissociation constant (Kd) came out at 0.8 nM, the off-rate (koff) came to 0.00184 s⁻¹ and the kon was found to be 2.9e+06 M⁻¹ s⁻¹. In the assay with rat NOGO-A, this molecule registered a Kd of 1 nM, a dissociation rate constant (koff) of 0.00101 s⁻¹ and an on-rate constant (kon) of 1.26e+06 M⁻¹ s⁻¹.

B3: Humanised anti-NOGO antibody H1L11 (antibody, V domains shown)
VH: QVQLVQSGAEVKKPGASVKVSCKASGYTFTSYWMHWVRQAPGQGLEWMGNINPSNGGTNYNEKFKSRVTMTRDTSTSTVYMELSSLRSEDTAVYYCELGQGYWGQGTTVTVSS
VL: DIVITQSPLSLPVTLGQPASISCRSSKSLLYKDGKTYLNWFQQRPGQSPQLLIYLMSTRASGVPDRFSGGGSGTDFTLKISRVEAEDVGVYYCQQLVEYPLTFGQGTKLEIK
notes: It was expressed transiently in CHO cells; also called H1l L11
On to B3, for which, in assay [1], the Kd was determined as 22.2 nM, the koff worked out at 0.0215 s⁻¹ and the kon came out at 1e+06 M⁻¹ s⁻¹. This molecule also showed an EC50 in assay [2] of 0.118 µg/mL.

B4: Anti-NOGO antibody 2C4/1 (mouse monoclonal) (antibody, V domains shown)
VH: EVQLVESGGGLVKPGGSLKLSCAASGFTFSCYAMSWVRQTPEKRLEWVASISDGGSYTYYPDNVKGRFTISRDNAKNNLYLQMSHLKSEDTAMYYCAKELLFDYWGQGTTLTVSS
VL: DVVMTQTPLSLPVSLGDQASISCRSSQSLVHSNGNTYLHWYLQKPGQSPKLLIYKVSNRFSGVPDRFSGSGSGTDFTLKISRVEAEDLGVYFCSQSTHVPLTFGAGTKLELK
notes: Mouse hybridoma antibody; also called Mouse 2C4
On to B4, for which, in assay [1], the dissociation constant Kd stood at 8 nM, the dissociation rate constant (koff) turned out to be 0.000644 s⁻¹ and the kon turned out to be 80900 M⁻¹ s⁻¹. Further, in the assay with rat NOGO-A, binding was put at a Kd of 3.9 nM, the koff amounted to 0.000533 s⁻¹ and the kon is 162000 M⁻¹ s⁻¹.

B5: Anti-NOGO antibody 15C3/3 (mouse monoclonal) (antibody, V domains shown)
VH: QVQLQQSGAELVKPGASVKISCKASGYAFSSYWMNWVKQRPGKGLEWIGQIYPGDGDTNYNGKFKGKATLTADKSSSTAYMQLSSLTSEDSAVYFCAVRFDYWGQGTTLTVSS
VL: DIVMTQAAPSVPVTPGESVSISCRSSKSLLHSNGNTYLYWFLQRPGQSPQLLIYRMSNLASGVPDRFSGSGSGTAFTLRISRVEAEDVGVYYCMQHLEYPLTFGAGTKLELK
notes: Mouse hybridoma antibody; also called Mouse 15C3
On to B5, for which, in assay [1], the dissociation constant Kd was found to be 17.5 nM, the koff was 0.000828 s⁻¹ and the kon was 40700 M⁻¹ s⁻¹. In addition, in the assay with rat NOGO-A, the Kd amounted to 24.9 nM, the koff came out at 0.00087 s⁻¹ and the kon was 46000 M⁻¹ s⁻¹.
